Legend:
[1] = molecular target: PPD1 (diphosphonucleotide phosphatase/phosphodiesterase) (Lupinus luteus, UniProt Q8VX11); settings: active site, bidentate, bridging Fe and Mn; crystals from acetate pH 5.2 and Morpheus solution pH 6.5
[2] = molecular target: Diphosphonucleotide phosphatase/phosphodiesterase (PPD1) from yellow lupin (Lupinus luteus) seeds (yellow lupin (Lupinus luteus)); experiment: SAXS; PPD1 in solution, 1-4 mg/ml, SWING beamline at SOLEIL; crystallographic hexamer and trimer models fitted with CRYSOL, ab initio shape reconstruction with GASBOR
[3] = molecular target: Diphosphonucleotide phosphatase/phosphodiesterase (PPD1) from yellow lupin (Lupinus luteus) seeds (yellow lupin (Lupinus luteus)); experiment: crystal structure; hanging drop at room temperature, 5 mg/ml PPD1 in 20 mM sodium acetate, 0.5 M NaCl pH 5.2 with Morpheus solution 39 (pH 6.5); asymmetric unit a homotrimer, hexamer generated from crystallographic symmetry; 1.65 Å

Chain of PPD1 (diphosphonucleotide phosphatase/phosphodiesterase) (Q8VX11 27-615): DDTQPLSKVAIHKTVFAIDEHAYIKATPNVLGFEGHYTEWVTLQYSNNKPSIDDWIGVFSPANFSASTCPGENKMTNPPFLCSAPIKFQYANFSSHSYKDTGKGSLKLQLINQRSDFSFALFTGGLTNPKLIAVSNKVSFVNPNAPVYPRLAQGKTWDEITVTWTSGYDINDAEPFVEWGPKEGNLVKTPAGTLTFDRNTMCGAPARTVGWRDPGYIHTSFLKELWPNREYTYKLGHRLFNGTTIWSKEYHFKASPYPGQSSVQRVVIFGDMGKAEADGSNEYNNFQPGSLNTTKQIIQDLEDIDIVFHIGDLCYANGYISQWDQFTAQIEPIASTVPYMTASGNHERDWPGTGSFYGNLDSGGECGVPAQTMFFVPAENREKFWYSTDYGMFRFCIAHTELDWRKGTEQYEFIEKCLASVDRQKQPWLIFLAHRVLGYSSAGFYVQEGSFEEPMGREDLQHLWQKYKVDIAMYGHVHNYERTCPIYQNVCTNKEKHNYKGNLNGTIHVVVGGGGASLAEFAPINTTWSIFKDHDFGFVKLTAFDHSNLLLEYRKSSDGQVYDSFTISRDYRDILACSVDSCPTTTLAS

| stoichiometry N [2] | stoichiometry N [3] | Molecule | X-ray crystal structure, 1.65 A [1] |
| --- | --- | --- | --- |
| – | – | O=P(O)(O)O [phosphate] | active site of PPD1 with a phosphate ion bound to both of the metal atoms |
| 6 | 6 | Diphosphonucleotide phosphatase/phosphodiesterase (PPD1) from yellow lupin (Lupinus luteus) seeds (enzyme) | – |

Reference: publication PMC4062093, “The structure of a purple acid phosphatase involved in plant growth and pathogen defence exhibits a novel immunoglobulin-like fold” (Iucrj, 2014)
